According to patent publication US20210253725A1 (BIONTECH, published 2021):
Substitutions are numbered along the chain they refer to. Numbers in names are those of the source.

T1: CD27 expressed on the cell surface (HT1080_CD27 cells) (human, UniProt P26842 20-260)
T1 sequence (looked up): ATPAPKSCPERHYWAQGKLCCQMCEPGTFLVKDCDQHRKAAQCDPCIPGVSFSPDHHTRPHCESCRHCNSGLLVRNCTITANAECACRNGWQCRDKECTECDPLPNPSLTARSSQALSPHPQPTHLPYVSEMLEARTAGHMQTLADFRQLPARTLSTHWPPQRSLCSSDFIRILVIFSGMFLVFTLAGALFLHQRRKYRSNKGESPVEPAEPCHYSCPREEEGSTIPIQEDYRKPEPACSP

T2: CD27 protein (His-tagged, Sino Biological Inc. 10039-H08B1) (human, UniProt P26842 20-192)
T2 construct: bought; coated onto ELISA plates; also called human CD27; recombinant protein; not shown: His tag
T2 sequence (looked up): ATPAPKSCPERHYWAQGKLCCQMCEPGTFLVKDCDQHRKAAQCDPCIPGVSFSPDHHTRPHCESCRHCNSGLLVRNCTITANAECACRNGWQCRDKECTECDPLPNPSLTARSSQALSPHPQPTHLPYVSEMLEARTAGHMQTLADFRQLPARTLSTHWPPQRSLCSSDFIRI

B1: P018.S.06.A.E04 (antibody, V domains shown)
VH: QEQLEESGGDLVQPEGSLTLTCTVSGFSFDSNYWICWVRQAPGKGPEWIACIMTGDGSIYYATWAKGRFTISKTSSTTVTLQMTSLTAADTATYFCARGYDGIHGGDNYGHVFNLWGPGTLVTVSS
VL: AFELTQTPFSVSAVVGGTVTINCQASENIYTLLAWYQQKSGQPPKLLIYRASTLTSGVPSRFKGSGSGTQFTLTISDLESADAATYYCQGYYVDSGNTFGGGTEVVVK
notes: V regions on human Ig constant parts; also called AB27_106
B2: P018.S.06.A.F04 (antibody, V domains shown)
VH: QQQLEESGGGLVKPEGSLTLTCKASGFTLSSYLMCWVRQAPGKGLELIGCIGTYSGATYYGSWAKDRFTIAKTSSTTVTLQMTSLTAADTATYFCARDYNFALWGPGTLVTVSS
VL: AIVMTQTPSSKSVPVGDTVTINCQASESVYNNNYLSWFQQKPGQPPKLLIYGASTLTSGVPSRFKGSGSGTQFTLTISDVVSDDAATYYCAGYKSSWTDGNAFGGGTEVVVK
notes: V regions on human Ig constant parts; also called AB27_109
B3: P018.S.09.A.A03 (antibody, V domains shown)
VH: QEQLVESGGGLVQPEGSLTLTCTASGFSFSSSYYMCWVRQAPGKGPEWIACIYTYSGDTDYANWAKGRFTISKTSSTTVTLQMTSLTAADTATYFCAKAGYGGYGYPIFNLWGPGTLVTVSS
VL: AFELTQTPSSVEAAVGGTVTIKCQASQSIGSSLAWYQQKPGQRPKLLMYYVSTLASGVSSRFKGSGSGTEFTLTISDLESADAATYYCQSYYGSGTTVFWAFGGGTEVVVK
notes: V regions on human Ig constant parts; also called AB27_144
B4: P018.S.09.A.E05 (antibody, V domains shown)
VH: QSLEESGGRLVTPGTPLTLTCTVSGIDLSRYDMSWVRQAPGKGLEWIGFIGASGSTYYASWVKGRFTISKTSTTVDLKITSPTTEDTATYFCAREETDSRGYYYSLWGPGTPVTVSS
VL: ALVMTQTPASVEAAVGGTVTINCQASQSISDLLGWYQQKPGQPPKLLIYDASDLASGVPSRFSGSGSGTEFTLTISGVQSDDAATYYCQQGYSINNVDNAFGGGTEVVVK
notes: V regions on human Ig constant parts; also called AB27_155
B5: P018.S.06.A.F06 (antibody, V domains shown)
VH: QSVEESGGRLVTPGTPLTLTCAASGFSLNSYVMSWVRQAPGKGLEWIGYIDYGGAPYYASWAKGRFTISKTSTTVELKITSPTIEDTGTYFCARGGYGGYVLVTALWGPGTLVTVSS
VL: DIVMTQTPASVSEPVGGTVTIKCQASENIYSYLAWYQQKPGQPPKLLIYQASTLASGVSSRFKGSGSGTQFTLTISDLESADAATYYCQTYYGGSTYGNGFGGGTEVVVE
notes: V regions on human Ig constant parts; also called AB27_110
B6: P018.S.01.A.C05 (antibody, V domains shown)
VH: QSLEESGGGLVQPEGSLTLTCTASGFSFSSRYYMCWVRQAPGKGLELIACIDTSSGSTWYASWAKGRFTVSKTSSTTVTLQMTSLTAADTATYFCARDLYHENSDGDWWGPGTLVTVSS
VL: AFELTQTPSSVEAAVGGTVTIKCQASESINNYLAWYQQKPGQPPKLLIYKASTLASGVSSRFKGSGSGTDFTLTISGVQSDDAATYYCQSYYGASGSGSNVFGGGTEVVVK
notes: V regions on human Ig constant parts; also called AB27_9
B7: P018.S.09.A.A05 (antibody, V domains shown)
VH: QSVEESGGRLVTPGTPLTLTCTVSGFSLSSYAMSWVRQAPGKGLEWIGYIWSGGTTDYASWAKGRFTISKTSTTVDLKITDPTTEDTATYFCARGLGDRGSSDYYMPLKLWGQGTLVTVSS
VL: AAVLTQTPSPVSAAVGGTVTINCQASEDIESYLAWYQQKPGQPPKLLIYSTSNLASGVSSRFRGSGSGTQLTLTISDLESADAATYYCQCTYDGSSAVWGAFGGGTEVVVK
notes: V regions on human Ig constant parts; also called AB27_145
B8: P018.S.04.A.C05 (antibody, V domains shown)
VH: QSVEESGGRLVTPGTPLTLTCTVSGFSLNYYSMAWVRQVPGEGLEWIGTINTGGGTYYASWAKGRFTISKTSTTVDLKMTSLTAADTATYFCARSDGTGITYYNLWGQGALVTVSS
VL: ALVMTQTASPVSAAVGGTVTINCQASETIYSNLAWYQQKQGQPPKLLIYRASNLASGVPSRFSGSESGTQFTLTISGVQSDDAATYYCQGYYNTGITGFGGGTEVVVK
notes: V regions on human Ig constant parts; also called AB27_70
B9: P018.S.10.A.B01 (antibody, V domains shown)
VH: QSLEESGGRLVTPGTPLTLTCTASGFSLSSYYMSWVRQAPGKGLEWIGIIDRAGTTYYATWAKGRFTISRTSTTVDLKMTSPTTEDTGTYFCARNFIYGVGTYYGSDLWGQGTLVTVSS
VL: DVVMTQTPASVSDPVGGTVTIKCQASESISRRLAWYQQKPGQPPKLLIYGASDLASGVPSRFSGSGSGTEFTLTISGVQSDDAATYYCQDTDYGSGHLGAFGGGTEVVVK
notes: V regions on human Ig constant parts; also called AB27_166
B10: P018.S.01.A.G06 (antibody, V domains shown)
VH: QSLEESGGGLFKPTDTLTLTCTVSGIDLSRYAMGWVRQAPGKGLEYIGIISVGGGTYYANWIKGRFTISSTSTTVDLKITSPTTEDTATYFCARSPYASTSASAFNLWGPGTLVTVSS
VL: AFELTQTPSSVEAAVGGTVTIKCQASQSIYSYLSWYQQKPGQPPKLLIYEASKLASGVPSRFSGSGSGTQFTLTISDLESADAATYYCQSYSNTNTNTFGGGTEVVVK
notes: V regions on human Ig constant parts; also called AB27_24
B11: P018.S.02.A.G04 (antibody, V domains shown)
VH: QSLEESGGRLVTPGGSLTLTCTVSGIDLSSYAMGWVRQAPGKGLEYIGIIYTSNRTHYATWAKGRFTISKSSTTVDLKATSLTTEDTATYFCGRYGRGSGGYYYGMDLWGPGTLVTVSS
VL: DIVMTQTPASVEAAVGGTVTIKCQASQSGDNYCSWYQQKPGQPPKLLIYQASKLTSGVPSRFRGSRSGTEYTLTISDLESADAATYYCQNYCAGSGVCLGIAFGGGTEVVVK
notes: V regions on human Ig constant parts; also called AB27_39
B12: P018.S.07.A.G04 (antibody, V domains shown)
VH: B11 VH with G15T, S16P, G48A, S53T
VL: B11 VL
notes: V regions on human Ig constant parts; also called AB27_130

Molecular target: T1, CD27 expressed on the cell surface …
Assay: cell-based or functional assay
Further: test concentration or dose not given here.

Binder | IL-8, cross-linked by F(ab')2 fragment [abs. corr.] | IL-8 [abs. corr.]
B1 | 1.22 abs. corr. | 0.327 abs. corr.
B2 | 1.16 abs. corr. | 0.678 abs. corr.
B3 | 1.54 abs. corr. | 0.263 abs. corr.
B4 | 2.17 abs. corr. | 0.872 abs. corr.
B5 | 1.03 abs. corr. | 0.7 abs. corr.
B6 | 1.4 abs. corr. | 0.327 abs. corr.
B7 | 1.95 abs. corr. | 0.504 abs. corr.
B8 | 1.43 abs. corr. | 0.382 abs. corr.
B9 | 1.04 abs. corr. | 0.08 abs. corr.
B10 | 1.09 abs. corr. | 0.491 abs. corr.
B11 | 1.67 abs. corr. | 0.205 abs. corr.
B12 | 1.74 abs. corr. | 0.274 abs. corr.

Molecular target: T2, CD27 protein (His-tagged, Sino …)
Assay: ELISA on coated His-tagged CD27

Binder | ELISA [abs. corr.]
B1 | 3.16 abs. corr.
B2 | 3.18 abs. corr.
B3 | 3.16 abs. corr.
B4 | 3.52 abs. corr.
B5 | 3.17 abs. corr.
B6 | 3.19 abs. corr.
B7 | 3.17 abs. corr.
B8 | 3.17 abs. corr.
B9 | 3.19 abs. corr.
B10 | 3.17 abs. corr.
B11 | 3.19 abs. corr.
B12 | 3.16 abs. corr.

Molecular target: T1, CD27 expressed on the cell surface …
Assay: cellular binding assay, HT1080_CD27 cells

Binder | Cellular binding assay [RFU]
B1 | 281 RFU
B2 | 338 RFU
B3 | 360 RFU
B4 | 353 RFU
B5 | 326 RFU
B6 | 349 RFU
B7 | 214 RFU
B8 | 292 RFU
B9 | 333 RFU
B10 | 313 RFU
B11 | 196 RFU
B12 | 177 RFU
